The target of data set [1] is T1, CocE (Rhodococcus sp., UniProt Q9L9D7).
T1 construct: 6xHis (C); made in house; host or cells: E. coli BL-21 Gold (DE3), pET-22b(+)
T1 sequence (Q9L9D7 1-574): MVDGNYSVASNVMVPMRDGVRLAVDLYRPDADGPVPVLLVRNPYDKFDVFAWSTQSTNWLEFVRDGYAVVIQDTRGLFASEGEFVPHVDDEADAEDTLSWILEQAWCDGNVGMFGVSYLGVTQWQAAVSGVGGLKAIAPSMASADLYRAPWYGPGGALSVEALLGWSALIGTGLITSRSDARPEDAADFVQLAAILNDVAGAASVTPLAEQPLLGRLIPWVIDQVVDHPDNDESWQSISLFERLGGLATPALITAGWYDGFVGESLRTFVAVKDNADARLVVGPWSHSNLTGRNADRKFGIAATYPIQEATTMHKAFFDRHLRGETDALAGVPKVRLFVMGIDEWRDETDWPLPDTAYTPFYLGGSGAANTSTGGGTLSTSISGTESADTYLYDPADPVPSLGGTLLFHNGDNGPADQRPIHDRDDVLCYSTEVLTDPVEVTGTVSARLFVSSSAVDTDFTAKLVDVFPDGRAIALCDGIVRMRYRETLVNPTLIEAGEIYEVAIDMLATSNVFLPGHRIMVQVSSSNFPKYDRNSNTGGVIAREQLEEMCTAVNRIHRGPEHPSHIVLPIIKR
Type of data set: biochemical, Rhodococcus sp. MB 1. The following applies: cocaine: 62.5 and 125 μM; benzoic acid: higher concentrations. The protocol:
CocE is also able to cleave another substrate, 4-nitrophenyl acetate (FIG. 3). Cleavage is monitored by detection of the appearance of the 4-nitrophenol reaction product, which absorbs at 400 nm.
Further spectrophotometric analysis of cocaine stabilization was performed, by analyzing the ability of CocE to cleave 4-nitrophenyl acetate, after preincubation at 37° C. for various times, in the presence of various concentrations of cocaine. […] However, preincubation of CocE at the higher concentrations for various times at 37° C. indicated the enzyme was stabilized enough to be able to cleave the 4-nitrophenyl substrate (FIG. 5).

The target of data set [2] is T1, CocE. Type of data set: biochemical, Rhodococcus sp. MB 1. The protocol: (§1) Analysis of CocE action on cocaine cleavage is performed by utilizing the spectroscopic properties of cocaine, which maximally absorbs light at a 240 nm wavelength. CocE activity is measured by monitoring for a decrease in signal at A240, using various concentrations of cocaine, and determining the initial rate of the decrease. From these values the Vmax of the enzyme can be determined. By pre-incubating the enzyme at 37° C. for various times before monitoring for activity, the half life of CocE at 37° C. can be calculated.
(§2) The initial rates (of decay) were determined by following the change in the intrinsic absorbance of cocaine at 240 nm (6700 M^1 cm^1)(Xie et al., 1999) using a SpectraMax Plus 384 UV plate reader (Molecular Devices, Sunnyvale, Calif.) using SOFTmax Pro software (Version 3.1.2). The reaction was initiated by adding 100 μL of a 2× enzyme solution (100 mM phosphate buffer, pH 7.4 and 300 mM NaCl) to 100 μL of a 2× cocaine solution (50 μg/mL enzyme, 100 mM Phosphate Buffer, pH 7.4 and 300 mM NaCl). All assays were performed with 100 μM DTT unless indicated otherwise. Final cocaine concentrations were as follows: 125, 62.5, 31.25, 15.63, 7.81, 3.91, 1.95, and 0.977 μM. Vmax and Km values were calculated using Prism (GraphPad Software, San Diego). For stability measurements, wild type and mutant enzymes were diluted to 2× concentration and incubated at 37° C. for the times indicated. At the end of each time point, an aliquot was removed and kinetic behavior was observed as outlined above.
(§3) In vitro kinetic assays. […] Initial rates were then used to determine Michaelis-Menten parameters. To assess thermal stability, enzyme preparations were preincubated at 37° C. for various lengths of time, prior to measurement of residual activities (Table 1 and FIG. 23).

Data set [3] deals with T1, CocE. Kind of data set: Screen for stabilization of CocE: 1 hour at 37° C., then 4-nitrophenyl acetate cleavage. Type of data set: biochemical, Rhodococcus sp. MB 1. The following applies: forty compounds tested. The protocol: However all of these small molecules inhibited enzyme activity to certain degrees. It was evaluated whether there might exist a small molecule that could prevent CocE aggregation, without inhibiting enzyme activity. Such a molecule could be used as a stabilizer in vitro, e.g., during enzyme preparation, and in vivo. An assay was designed to screen a library of 20,000 small molecules for stabilization of CocE. In that assay, the enzyme is mixed with the compounds in a 96-well plate format, and then incubated at 37° C. for one hour. […] After 37° C. incubation, the enzyme/compound mixtures are tested for the ability to cleave 4-nitrophenyl acetate (FIG. 8). Only compounds stabilized would be able to cleave after this incubation period.
Forty compounds were first tested. The compounds were assayed in duplicate with appropriate controls. A duplicate plate (without enzyme) was performed as a negative control, to check for compounds able to cause an increase in 400 nm absorbance in the absence of CocE. […] Some were able to do this in the absence of CocE. These were discarded as false positives.
FIG. 9 is a plot of the initial rate of 4-nitrophenyl acetate cleavage for all compounds, after the background “no enzyme” cleavage was subtracted. […]

The procedure of data set [4]: as §1
as §2, with “Final cocaine concentrations were as follows: 125, 62.5, 31.25, 15.63, 7.81, 3.91, 1.95, and 0.977 μM. Vmax and Km values were calculated using Prism (GraphPad Software, San Diego).” left out
as §3

Data set [5] in a line: Michaelis-Menten kinetics of cocaine hydrolysis (absorbance at 240 nm). Type of data set: biochemical. The following applies: cocaine. The protocol: as §2, §3
Determination of Catalytic Efficiency. To determine the catalytic activity a spectrophometric assay was performed. Samples of L169K/G173Q CocE were added to a 96-well UV permeable plate containing increasing cocaine concentrations (0.5, 2.5, 5, 12.5, 25, 50, 100, and 150 μM) to give a final concentration of 10 ng/ml CocE in a final volume of 200 μl. The change in absorbance at 240 nm was measured over 20 minutes, with readings every 10 seconds, by a SpectraMax Plus 384 UV plate reader (Molecular Devices, Sunnyvale, Calif.) using SOFTmax Pro software (Version 3.1.2). The change in absorbance was converted to the change in concentration and furthermore the rate of decay per mole enzyme is determined (Kcat). Kcat and Km of the enzyme are determined using Prism (GraphPad software, San Diego).

Data set [6] can be described thus: Circular dichroism melting temperature of CocE proteins alone. Type of data set: physicochemical. The following applies: for melting temperature: circular dichroism, enzyme alone.
Method: Further characterization of the stability of wild type (WT) CocE and thermostable mutants was performed through circular dichroism, which detects small changes in protein conformation and structure. Analysis by repeated CD measurements at increasing temperatures allows analysis of the thermodynamics and melting temperature (TM) of the protein, so long as the melting is reversible (i.e. the protein resumes it's original conformation upon cooling). […] However CD is still of value in determining the temperature to unfolding.
The test system of data set [7] is cocaine-induced lethality. Kind of data set: In vivo potency of protection against cocaine-induced lethality. Details: species or system NIH-Swiss mice. The conditions noted are these: for protection against cocaine-induced lethality: i.v. pretreatment 1 min prior to i.p. cocaine.
The subject of data set [8] is cocaine-induced lethality. As to the kind of experiment: In vivo duration of protection against cocaine-induced lethality. Also on record: species or system NIH-Swiss mice. The conditions noted are these: 1 mg i.v.; cocaine 180 mg/kg i.p. The protocol: In vivo protection against cocaine lethality. Male NIH-Swiss mice (25-32 g) were obtained from Harlan Inc. (Indianapolis, Ind.) and were housed in groups of 6 mice per cage. All mice were allowed ad libitum access to food and water, and were maintained on a 12-h light-dark cycle with lights on at 06.30 AM in a room kept at a temperature of 21-22° C. Experiments were performed in accordance with the Guide for the Care and Use of Laboratory Animals as adopted and promulgated by the National Institutes of Health. The experimental protocols were approved by the University Committee on the Use and Care of Animals at the University of Michigan.
Cocaine-induced toxicity was characterized by the occurrence of lethality, as defined by the cessation of observed movement and respiration. Mice were placed individually in Plexiglas observation chambers (16×28×20 cm high) to be habituated for 15 min before drug administration. Following intra-peritoneal (i.p.) cocaine administration, the mouse was immediately placed individually in the same chamber for observation. The presence or absence of lethality was recorded for 60 min following cocaine administration. The mouse was placed in a small restraint chamber (Outer tube diameter: 30 mm; Inner tube diameter: 24 mm) that left the tail exposed. The tail was cleansed with an alcohol wipe and a 30G1/2 precision glide needle (Fisher Scientific, Pittsburgh, Pa.) was inserted into one of the side veins for infusion. The i.v. injection volume of CocE or CocE mutant was 0.2 mL per mouse. Sterile gauze and pressure were applied to the injection site to staunch the bleeding.
Lethality was monitored following injection at 1, 5, 10, or 30 min, or 1, 2, 3, 4, 5 hours after enzyme administration. Each treatment used 8 mice to assess the percent of lethality (i.e., protection) in mice pretreated with a single dose of an esterase at a single time point.
These values were used to compare the degree of rightward shifts of cocaine's dose-response curve in the absence or presence of the enzyme pretreatment. In the time course study, a time point for duration of protection (i.e., 50% of lethality) was estimated by using each time course curve crossing 50% occurrence of lethality.
Evaluation of in vivo half life. CocE is administered IV to the tail vein in a volume of 0.2 ml. Animals are challenged with 180 mg/kg cocaine delivered intraperitoneally at a given time after CocE administration.

In the case of `COc1ccc(OC)c(N(CC(=O)N2CCCCC2)S(=O)(=O)c2ccccc2)c1` [compound 6169221], the “inhibition of 4-nitrophenyl acetate cleavage” value in data set [1] is on record as “did not inhibit”. The “inhibition of cocaine cleavage” value in data set [2] is on record as “did not inhibit”. Also, the “effectiveness in stabilization screen” value in data set [3] is given as “effective”.

B1: T172R: CocE mutant (protein, listed as Rhodococcus sp.)
chain: MVDGNYSVASNVMVPMRDGVRLAVDLYRPDADGPVPVLLVRNPYDKFDVFAWSTQSTNWLEFVRDGYAVVIQDTRGLFASEGEFVPHVDDEADAEDTLSWILEQAWCDGNVGMFGVSYLGVTQWQAAVSGVGGLKAIAPSMASADLYRAPWYGPGGALSVEALLGWSALIGRGLITSRSDARPEDAADFVQLAAILNDVAGAASVTPLAEQPLLGRLIPWVIDQVVDHPDNDESWQSISLFERLGGLATPALITAGWYDGFVGESLRTFVAVKDNADARLVVGPWSHSNLTGRNADRKFGIAATYPIQEATTMHKAFFDRHLRGETDALAGVPKVRLFVMGIDEWRDETDWPLPDTAYTPFYLGGSGAANTSTGGGTLSTSISGTESADTYLYDPADPVPSLGGTLLFHNGDNGPADQRPIHDRDDVLCYSTEVLTDPVEVTGTVSARLFVSSSAVDTDFTAKLVDVFPDGRAIALCDGIVRMRYRETLVNPTLIEAGEIYEVAIDMLATSNVFLPGHRIMVQVSSSNFPKYDRNSNTGGVIAREQLEEMCTAVNRIHRGPEHPSHIVLPIIKR
Turning to B1, in data set [4], the “Stability @ 37 (t1/2)” value is approximately 0.767 h, the “half-life / τinact of activity at 37° C.” value was 0.767 h and the “t1/2” value is 0.78 h. The “Kcat(mol · s^−1 · mol^−1)” value in data set [5] turned out to be 2502 mol · s^−1 · mol^−1. For the same molecule, in data set [6], the “melting temperature higher than the WT” value is reported as 2-3 degrees and the melting temperature was approximately 42 °C. Also, the “protection against cocaine-induced lethality” value in data set [7] is given as “protected”. Also, the “LT50, pretreatment time to 50% lethality” value in data set [8] was approximately 1.8 h.

B2: L169K: CocE mutant (protein, listed as Rhodococcus sp.)
chain: MVDGNYSVASNVMVPMRDGVRLAVDLYRPDADGPVPVLLVRNPYDKFDVFAWSTQSTNWLEFVRDGYAVVIQDTRGLFASEGEFVPHVDDEADAEDTLSWILEQAWCDGNVGMFGVSYLGVTQWQAAVSGVGGLKAIAPSMASADLYRAPWYGPGGALSVEALLGWSAKIGTGLITSRSDARPEDAADFVQLAAILNDVAGAASVTPLAEQPLLGRLIPWVIDQVVDHPDNDESWQSISLFERLGGLATPALITAGWYDGFVGESLRTFVAVKDNADARLVVGPWSHSNLTGRNADRKFGIAATYPIQEATTMHKAFFDRHLRGETDALAGVPKVRLFVMGIDEWRDETDWPLPDTAYTPFYLGGSGAANTSTGGGTLSTSISGTESADTYLYDPADPVPSLGGTLLFHNGDNGPADQRPIHDRDDVLCYSTEVLTDPVEVTGTVSARLFVSSSAVDTDFTAKLVDVFPDGRAIALCDGIVRMRYRETLVNPTLIEAGEIYEVAIDMLATSNVFLPGHRIMVQVSSSNFPKYDRNSNTGGVIAREQLEEMCTAVNRIHRGPEHPSHIVLPIIKR
B2: in data set [4], the “Stability @ 37 (t1/2)” value is approximately 4.57 h, the “half-life / τinact of activity at 37° C.” value was found to be 4.57 h and the “t1/2” value worked out at 4.57 h. The “plateau of catalytic activity, percent of maximal” value in data set [4] (37° C., after greater than 8 hr / t=10 hours) is “approximately 35%”. In addition, in data set [5], the “Kcat(mol · s^−1 · mol^−1)” value was determined as 3104 mol · s^−1 · mol^−1 and the “increase in Km” value is approximately 5 fold. The same molecule gave a melting temperature in data set [6] of approximately 65 °C. In addition, the “rightward shift in the cocaine dose-response curve” value in data set [7] (enzyme 1 mg (30 mg/kg) i.v.) is reported as 6-7 fold. The “protection against cocaine-induced lethality” value in data set [7] is listed as “protected”. Also, the “LT50, pretreatment time to 50% lethality” value in data set [8] was approximately 3.3 h.

The values are drawn from patent US9526786B2, “Thermostabilization of proteins” (The Trustee of Columbia University in the City of New York, priority 2007, dated 2016).
